B1: DENV-3 antigen (other)
chain: SNALKGMSYAMCTNTFVLKKEVSETQHGTILIKVEYKGEDAPCKIPFSTEDGQGKAHNGRLITANPVVTKKEEPVNIEAEPPFGESNIVIGIGDNALKINWYKK
B2: DENV-4 antigen (other)
chain: SNAIKGMSYTMCSGKFSIDKEMAETQHGTTVVKVKYEGTGAPCKVPIEIRDVNKEKVVGRIISSTPFAENTNSVTNIELEPPFGDSYIVIGVGDSALTLHWFR
B3: DENV-1 antigen (other)
chain: SNALKGVSYVMCTGSFKLEKEVAETQHGTVLVQVKYEGTDAPCKIPISTQDEKGVTQNGRLITANPIVTDKEKPVNIETEPPFGESYIVIGAGEKALKLSWFK
notes: also called DENV-1 Ag

Holding throughout (assay): size exclusion chromatography of the tetravalent antigen mixture without adjuvant
The target in assay [1] is DENV-2 antigen (dengue virus serotype 2 (DENV-2), UniProt P14337 573-674).
Assay [2] concerns the target B1.
Assay [3] concerns the target B2.

Regarding B1, in assay [1], the binding result is reported as “no binding”.

As for B2, the binding result in assay [1] and in assay [2] was “no binding” throughout.

Take B3: the binding result in assay [1], in assay [2] and in assay [3] was “no binding” throughout.

The values are drawn from US20220054617A1 (REGENTS OF THE UNIVERSITY OF MINNESOTA, published 2022).
